Experimental data: US20190389961A1 (INNATE PHARMA, published 2019)

Biological target: T1, human CD39 mutant 19 (human, UniProt P49961 1-510)
T1 construct: Expressed on Hek-293T cells; also called M19
T1 chain: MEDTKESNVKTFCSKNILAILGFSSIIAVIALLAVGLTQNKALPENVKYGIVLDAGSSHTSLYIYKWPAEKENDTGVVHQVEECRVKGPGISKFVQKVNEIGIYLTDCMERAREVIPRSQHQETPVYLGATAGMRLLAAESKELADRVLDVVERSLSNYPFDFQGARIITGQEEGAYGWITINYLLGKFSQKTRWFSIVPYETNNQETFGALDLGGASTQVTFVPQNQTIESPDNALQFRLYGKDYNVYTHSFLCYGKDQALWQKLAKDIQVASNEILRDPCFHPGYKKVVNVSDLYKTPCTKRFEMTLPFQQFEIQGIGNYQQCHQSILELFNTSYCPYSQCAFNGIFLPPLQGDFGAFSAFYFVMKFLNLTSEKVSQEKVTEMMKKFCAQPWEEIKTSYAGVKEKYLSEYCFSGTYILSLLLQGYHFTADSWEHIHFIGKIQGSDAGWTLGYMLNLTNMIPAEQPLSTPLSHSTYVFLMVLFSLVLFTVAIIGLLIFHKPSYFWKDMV
Test: flow cytometry on Hek-293T cells expressing CD39 mutant 19 (panel M19)
Description: Mutants were transfected in Hek-293T cells, as shown in the table 1, using numbering of SEQ ID NO: 1. […] Mutant 19 includes substitutions at residues R138, M139 and E142.
In order to define the epitopes of the further anti-CD39 antibodies of Example 5, they were tested for loss of binding to the panel of CD39 mutants as described in Example 1 and Table 1. Mutants were transfected in Hek-293T cells, as shown in the table 1, using numbering of SEQ ID NO: 1.Dose-ranges of test antibodies (10-2.5-0.625-0.1563-0.0391-0.0098-0.0024-0.0006 μg/ml) are tested on the 20 generated mutants by flow cytometry.

B1: antibody I-394 (antibody, V domains shown)
VH: EVQLQQSGPELVKPGASVKMSCKASGYTFTDYNMHWVKQSHGRTLEWIGYIVPLNGGSTFNQKFKGRATLTVNTSSRTAYMELRSLTSEDSAAYYCARGGTRFAYWGQGTLVTVSA
VL: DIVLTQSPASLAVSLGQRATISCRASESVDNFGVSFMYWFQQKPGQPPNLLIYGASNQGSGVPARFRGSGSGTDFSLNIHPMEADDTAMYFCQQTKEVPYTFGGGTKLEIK
notes: Mouse variable regions; Produced in CHO with human IgG1 constant domains carrying L234A/L235E/G237A/A330S/P331S (Kabat EU numbering) and a human Ck constant domain
binding result: no binding
